Measured values taken from PMC9473612.

Molecular target: EB1-mScarlet (UniProt Q9XZ57)
Assay: co-immunoprecipitation (mNeongreen-trap) with immunoblot quantification
Settings: S2 cells overexpressing the constructs; n = 3 independent replicates; parent: est. 100; read off a plot

Chain of UniProt Q9XZ57 (Q9XZ57 entry or part of it): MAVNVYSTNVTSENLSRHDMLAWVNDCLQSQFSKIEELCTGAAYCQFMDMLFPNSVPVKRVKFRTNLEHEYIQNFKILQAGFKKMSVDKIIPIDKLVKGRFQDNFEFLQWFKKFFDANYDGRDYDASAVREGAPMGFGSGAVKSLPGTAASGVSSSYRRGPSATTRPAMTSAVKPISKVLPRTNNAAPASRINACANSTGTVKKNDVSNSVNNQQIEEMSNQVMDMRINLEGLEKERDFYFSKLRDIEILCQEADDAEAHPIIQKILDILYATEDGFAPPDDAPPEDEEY

| percent of parent (% relative to WT) | Substance |
| --- | --- |
| 78 | mNeongreen RhoGEF2 (1–619), wild type SKIP→SKNN (I→N; P→N in the SxIP motif; residue numbers not printed) |
| 56 | mNeongreen RhoGEF2 (1–619), wild type 7E (seven serines proximal to the SKIP motif changed to E; residue numbers not printed) |
| 76 | mNeongreen RhoGEF2 (1–619), wild type 7A (seven serines proximal to the SKIP motif changed to A; residue numbers not printed) |
